Type in all cases: cell-based
One test concerns HIV-1 Env JRFL. Kind of test: HIV-1 Env-mediated cell-cell fusion. The conditions noted are these: Table 4, clade B, R5.
A further test deals with HIV-1 Bal. Kind of test: Pseudotyped HIV-1 neutralization (HOS-CD4-CCR5 cells). The note with it: Table 2, clade B, R5. Here is the method: (§1) To determine the potency and breadth of HIV-1 neutralization by the D1 mutants, viruses pseudotyped with Envs from HIV-1 isolates representing clades A-E and using either CCR5 (R5) or CXCR4 (X4) or both (R5X4) as a coreceptor were included. Pseudoviruses were derived from 293T cells and a neutralization assay was performed in duplicate using HOS-CD4-CCR5 (for all R5 and dual tropic viruses) or HOS-CD4-CXCR4 cell lines as described in Chen et al., Proc. Natl. Acad. Sci. USA, 105: 17121-17126 (2008)). Luminescence was measured 48 hours post-infection and the percentage neutralization was calculated by the following formula: (1—average RLU of inhibitor-containing wells/average RLU or virus-only wells)×100.

The next test concerns HIV-1 JRFL. The test is described as above. The note with it: Table 2, clade B, R5. Here is the method:
as §1

A further test deals with HIV-1 Env Bal. Kind of test: HIV-1 Env-mediated cell-cell fusion. The note with it: Table 4, clade B, R5.

B1: m36.4: engineered single human antibody domain targeting a CD4i epitope on HIV-1 gp120, SEQ ID NO: 15 (antibody, V domains shown)
VH: QVQLVQSGGGLVQPGGSLRLSCAASAFDFSDYEMSWVREAPGKGLEWIGEINDSGNTIYNPSLKSRVTISRDNSKNTLYLQMNTLRAEDTAIYYCAIYGGNSGGEYWGQGTLVTVSS
Broadly, the IC50 is the concentration that inhibits the measured activity by half. Low values mean higher potency, high ones lower potency. In general, IC90 refers to the concentration needed for an effect of 90%. As to B1, the results for the IC50 in the test with HIV-1 Env JRFL, with HIV-1 Bal and with HIV-1 JRFL were 128 nM, 16 nM and 18 nM, respectively. Also, the IC90 in the test with HIV-1 Env JRFL stood at 1080 nM; in the test on HIV-1 Bal, 75 nM; in the test with HIV-1 JRFL it was 106 nM; in the test on HIV-1 Env Bal, 235 nM.
